*1 amine or outer side, *2 acyl side, *3 side chain or, on linkers, in order; H or OH if unused. Where no end group is shown, it is not given here. [ ]: non-standard residue; d: D form. αMe‑APPA = 2-amino-2-methyl-5-phenylpentanoic acid, C[C@@](CCCc1ccccc1)(N[*:1])C(=O)[*:2]; Arg(NO2) = N=C(NCCC[C@H](N)C(=O)O)N[N+](=O)[O-]; αMePhe(2,6-F2) = C[C@](N)(Cc1c(F)cccc1F)C(=O)O; αMePhe(2-F) = C[C@](N)(Cc1ccccc1F)C(=O)O; αMeW = C[C@](N)(Cc1c[nH]c2ccccc12)C(=O)O; αMeNle = CCCC[C@](C)(N[*:1])C(=O)[*:2]; hhPhe = N[C@@H](CCCc1ccccc1)C(=O)O; hArg = N=C(N)NCCCC[C@H](N)C(=O)O; αMeF = C[C@](N)(Cc1ccccc1)C(=O)O; Cit = NC(=O)NCCC[C@H](N)C(=O)O; αMeV = CC(C)[C@](C)(N)C(=O)O; αMeM = CSCC[C@](C)(N)C(=O)O; αMeP = C[C@@]1(C(=O)O)CCCN1; Nle = CCCC[C@H](N)C(=O)O; Orn = NCCC[C@H](N)C(=O)O; Ac5c = NC1(C(=O)O)CCCC1; Ac3c = NC1(C(=O)O)CC1; Aib = CC(C)(N)C(=O)O
T1: rat PTH-1R (rat PTHR endogenously expressed on UMR-106 rat osteosarcoma cells) (rat, UniProt P25961 27-591)
T1 sequence (looked up): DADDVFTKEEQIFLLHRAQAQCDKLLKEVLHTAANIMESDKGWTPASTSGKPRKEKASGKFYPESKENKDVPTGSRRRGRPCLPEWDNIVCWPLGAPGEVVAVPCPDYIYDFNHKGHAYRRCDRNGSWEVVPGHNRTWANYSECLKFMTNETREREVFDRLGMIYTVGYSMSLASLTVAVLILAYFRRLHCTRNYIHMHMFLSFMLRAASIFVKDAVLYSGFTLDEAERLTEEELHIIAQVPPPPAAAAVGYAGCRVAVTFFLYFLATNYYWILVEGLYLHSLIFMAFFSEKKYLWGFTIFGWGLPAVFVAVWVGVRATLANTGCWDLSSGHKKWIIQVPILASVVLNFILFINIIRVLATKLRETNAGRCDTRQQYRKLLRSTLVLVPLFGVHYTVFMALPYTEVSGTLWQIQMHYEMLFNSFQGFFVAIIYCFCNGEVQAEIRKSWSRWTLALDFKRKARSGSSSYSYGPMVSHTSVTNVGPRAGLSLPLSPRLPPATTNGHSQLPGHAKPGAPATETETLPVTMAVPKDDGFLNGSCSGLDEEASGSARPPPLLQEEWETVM


These binders were tested against T1, rat PTH-1R (rat PTHR endogenously …) (assay: cell-based or functional assay).

Binder | cAMP released with respect to control, 1 nM peptide, UMR-106 cells | cAMP released with respect to control, 10 nM peptide, UMR-106 cells | cAMP released with respect to control, 100 nM peptide, UMR-106 cells
[Ac5c]V[Ac5c]EIQ[αMePhe(2,6-F2)][Nle]HQ[hArg][Aib][αMePhe(2,6-F2)][αMePhe(2,6-F2)] [Seq. ID. 238] | 38 percent of control | 91 percent of control | 120 percent of control
[Aib]V[Aib]EIQL[αMeM]HQ[hArg]A[hArg][αMeW][hhPhe] [Seq. ID. 942] | 29 percent of control | 52 percent of control | 69 percent of control
[Aib]V[Ac5c]EIQ[αMePhe(2,6-F2)][Nle]HQ[hArg][αMeP]K[αMePhe(2-F)] [Seq. ID. 78] | 23 percent of control | 73 percent of control | 93 percent of control
[Aib]V[Aib]EIQ[αMePhe(2,6-F2)][Nle]HQ[hArg][Aib][Cit][αMePhe(2-F)] [Seq. ID. 132] | 29 percent of control | 82 percent of control | 101 percent of control
[Aib]V[Ac5c]EIQ[αMePhe(2,6-F2)][Nle]HQ[hArg][Aib][Arg(NO2)][αMePhe(2-F)] [Seq. ID. 256] | 28 percent of control | 71 percent of control | 87 percent of control
[Aib]V[Aib]EIQ[αMePhe(2-F)][Nle]HQ[hArg][αMeP]K[αMePhe(2,6-F2)] [Seq. ID. 91] | 42 percent of control | 101 percent of control | 110 percent of control
[Aib]V[Aib]EIQ[αMePhe(2-F)][Nle]HQ[Cit][Aib][Cit][αMePhe(2-F)] [Seq. ID. 346] | 21 percent of control | 51 percent of control | 69 percent of control
[Aib]V[Aib]EIQ[αMePhe(2,6-F2)][Nle]HQ[Orn]A[αMePhe(2,6-F2)][αMePhe(2,6-F2)] [Seq. ID. 325] | 38 percent of control | 98 percent of control | 116 percent of control
[Aib]V[Ac5c]EIQ[αMePhe(2,6-F2)][Nle]HQ[hArg][Aib][Cit][αMePhe(2,6-F2)] [Seq. ID. 156] | 31 percent of control | 89 percent of control | 106 percent of control
[Aib]V[Aib]EIQ[αMePhe(2,6-F2)][Nle]HQ[hArg][Aib][αMePhe(2,6-F2)][αMePhe(2-F)] [Seq. ID. 212] | 34 percent of control | 88 percent of control | 116 percent of control
[Ac5c]V[Aib]EIQ[αMePhe(2,6-F2)][Nle]HQ[hArg]AK[αMeF] [Seq. ID. 49] | 16 percent of control | 56 percent of control | 73 percent of control
V[Ac3c]V[Aib]EIQL[αMeNle]HQ[hArg]A[hArg][αMePhe(2-F)][αMe‑APPA] [Seq. ID. 935] | 38 percent of control | 102 percent of control | 117 percent of control
[Ac3c]V[Aib]EIQ[αMePhe(2,6-F2)][Nle]HQ[hArg][Aib][Aib][αMePhe(2-F)] [Seq. ID. 174] | 31 percent of control | 72 percent of control | 100 percent of control
[Ac3c]V[Aib]EIQ[αMePhe(2,6-F2)][Nle]HQ[hArg][αMeP]K[αMePhe(2,6-F2)] [Seq. ID. 110] | 12 percent of control | 39 percent of control | 72 percent of control
[Ac3c]V[Aib]EIQL[Nle]HQ[hArg][Aib]K[αMeF] [Seq. ID. 15] | 28 percent of control | 78 percent of control | 99 percent of control
[Ac5c]V[Aib]EIQ[αMePhe(2-F)][Nle]HQ[Orn][Aib][Cit][αMePhe(2,6-F2)] [Seq. ID. 292] | 39 percent of control | 104 percent of control | 120 percent of control
[Aib]V[Aib]EIQ[αMePhe(2-F)][Nle]HQ[Orn][Aib][Arg(NO2)][αMePhe(2-F)] [Seq. ID. 330] | 18 percent of control | 51 percent of control | 72 percent of control
[Ac5c]V[Aib]EIQ[αMePhe(2,6-F2)][Nle]HQ[Orn]A[Aib][αMePhe(2,6-F2)] [Seq. ID. 311] | 26 percent of control | 68 percent of control | 86 percent of control
[Ac5c]V[Ac5c]EIQ[αMePhe(2,6-F2)][Nle]HQ[hArg][Aib][Aib][αMePhe(2,6-F2)] [Seq. ID. 198] | 32 percent of control | 71 percent of control | 99 percent of control
[Aib]V[Aib]EIQLMHQ[hArg][Aib]K[αMeF] [Seq. ID. 9] | 16 percent of control | 41 percent of control | 52 percent of control
V[Ac3c]V[Aib]EIQL[αMeM]HQ[hArg]A[hArg][αMeW][αMe‑APPA] [Seq. ID. 950] | 26 percent of control | 67 percent of control | 81 percent of control
[Aib]V[Aib]EIQ[αMePhe(2,6-F2)][Nle]HQ[hArg]A[Arg(NO2)][αMePhe(2,6-F2)] [Seq. ID. 271] | 46 percent of control | 108 percent of control | 116 percent of control
[αMeV][Ac5c]V[Aib]EIQL[αMeM]HQ[hArg]A[hArg][αMeW][αMe‑APPA] [Seq. ID. 954] | 36 percent of control | 88 percent of control | 116 percent of control
[Ac5c]V[Ac5c]EIQ[αMePhe(2-F)][Nle]HQ[hArg][αMeP]K[αMePhe(2-F)] [Seq. ID. 65] | 34 percent of control | 82 percent of control | 104 percent of control
[Ac3c]V[Aib]EIQ[αMePhe(2-F)][Nle]HQ[hArg][αMeP]K[αMePhe(2-F)] [Seq. ID. 59] | 19 percent of control | 66 percent of control | 84 percent of control

— patent publication US8383581B2, “Short-chain peptides as parathyroid hormone (PTH) receptor agonist” (Cadila Healthcare Limited, priority 2009, dated 2013)
